Entries after “also recorded” stand apart in the source; their conditions may differ.
B1: humanized SMO antibody No. 7: humanized SMO antibody, VH SEQ ID NO: 23 and VL SEQ ID NO: 28 (antibody, V domains shown)
VH: QVQLVQSGAEVKKPGASVKVSCKASGYTFTEYTMHWVRQAPGQRLEWMGGINPNTGDTRYNQKFKGRVTITVDKSASTAYMELSSLRSEDTAVYYCARDYYGSPFVYWGQGTLVTVSS
VL: DIVMTQSPLSLPVTPGEPASISCRSSQSIVHSSGYTFLDWYLQKPGQSPQLLIYKVSNRFSGVPDRFSGSGSGTDFTLKISRVEAEDVGVYYCFQGSHVPLTFGGGTKVEIK
modifications: huSM01-21-07 VH; huSM01-21-07 VL
B2: humanized SMO antibody No. 16: humanized SMO antibody, VH SEQ ID NO: 25 and VL SEQ ID NO: 29 (antibody, V domains shown)
VH: QVQLVQSGAEVKKPGASVKVSCKASGYTFTEYTMHWVRQAPGQGLEWMGGINPNTGDTRYNQKFKGRVTMTVDKSTSTVYMELSSLRSEDTAVYYCARDYYGSPFVYWGQGTLVTVSS
VL: DIQMTQSPSSLSASVGDRVTITCRSSQSIVHSSGYTFLDWYQQKPGKAPKLLIYKVSNRFSGVPSRFSGSGSGTDFTLTISSLQPEDFATYYCFQGSHVPLTFGQGTKVEIK
modifications: huSM01-21-16 VH; huSM01-21-15 VL
B3: humanized SMO antibody No. 15: humanized SMO antibody, VH SEQ ID NO: 24 and VL SEQ ID NO: 29 (antibody, V domains shown)
VH: QVQLVQSGAEVKKPGASVKVSCKASGYTFTEYTMHWVRQAPGQRLEWMGGINPNTGDTRYNQKFKGRVTITVDKSASTAYMELSSLRSEDTAVYYCARDYYGSPFVYWGQGTLVTVSS
VL: DIQMTQSPSSLSASVGDRVTITCRSSQSIVHSSGYTFLDWYQQKPGKAPKLLIYKVSNRFSGVPSRFSGSGSGTDFTLTISSLQPEDFATYYCFQGSHVPLTFGQGTKVEIK
modifications: huSM01-21-15 VH; huSM01-21-15 VL
B4: humanized SMO antibody No. 17: humanized SMO antibody, VH SEQ ID NO: 26 and VL SEQ ID NO: 29 (antibody, V domains shown)
VH: EVQLVQSGAEVKKPGATVKISCKVSGYTFTEYTMHWVQQAPGKGLEWMGGINPNTGDTRYNQKFKGRVTITVDKSTDTAYMELSSLRSEDTAVYYCARDYYGSPFVYWGQGTLVTVSS
VL: DIQMTQSPSSLSASVGDRVTITCRSSQSIVHSSGYTFLDWYQQKPGKAPKLLIYKVSNRFSGVPSRFSGSGSGTDFTLTISSLQPEDFATYYCFQGSHVPLTFGQGTKVEIK
modifications: huSM01-21-17 VH; huSM01-21-15 VL

How the values were obtained:
Format in all cases: cell-based
[1] = tested on: SHH-induced GLI transcriptional activity; test: NIH3T3-GLI reporter assay, humanized SMO antibodies; conditions: NIH3T3-GLI cells, Sonic hedgehog peptide 15 h, 10 and 20 μg/ml antibody 6 h
Protocol: GLI Repoter-NIH3T3 cell line was purchased from BPS Bioscience (CA, USA).
After NIH3T3-GLI cells having GLI transcriptional activity were plated in a 96-well plate at a density of 1×10^4 cells/cm^2, 2% BCS was treated with Sonic hedgehog peptide. Following 15 h, the cells were treated with different concentrations (10 and 20 μg/ml) of each of humanized antibody Nos. 5 (Production Example 6), 7 (Production Example 7), 15 (Production Example 8), 16 (Production Example 9), and 17 (Production Example 10) for 6 h. GLI1 Reporter activity (%) was measured through luminescence using a Reporter assay kit (Promega, WI, USA). The above procedure was repeated except that the SMO small-molecule inhibitor vismodegib or erismodegib was used as a positive control instead of the inventive SMO antibody.

[2] = tested on: GLI1; test: Western blotting of HCT116 cell line treated with humanized SMO antibodies; conditions: HCT116, 10 and 20 μg/ml, serum free media
Protocol: (§1) HCT116 cell line was purchased from the Korean Cell Line Bank. 24 h after cells were plated in a […] at a density of 5×10^5 cells/cm^2, they were treated with different concentrations (10 and 20 μg/ml) of each of humanized SMO antibody Nos. 5, 7, 15, 16, and 17 in serum free media.
(§2) Cells were disrupted by a combination of mechanical homogenization and sonication in a lysis buffer (7 M urea, 2 M thiourea, 4% CHAPS, 40 mM Tris, 100 mM DTT) supplemented with protease, followed by centrifugation at 15,000 rpm and 4° C. for 20 min. Proteins in the supernatant were quantified with NanoDrop by bicinchoninic acid (BCA) assay.
(§3) 30 μg of the proteins isolated from the collected tissues were subjected to electrophoresis, transferred to a PVDF membrane, labeled with anti-GLI1 antibody (cell signaling, MA, USA), anti-SMO antibody (Santa Cruz, CA, USA), and anti β-actin antibody as primary antibodies and an HRP-conjugated anti-rabbit antibody as a secondary antibody, and detected by chemiluminescence staining. The expression levels of SMO protein were measured by the enhanced chemiluminescence (ECL) method.

[3] = tested on: SMO; test: as above; conditions: HCT116, 10 and 20 μg/ml, serum free media
Protocol: as §1, §2, §3

[4] = tested on: HCT116 cell line; test: Transwell migration assay; conditions: HCT116, 10 μg/ml, 48 h
Protocol: After HCT116 cell line was plated in a transwell, each of humanized SMO antibody Nos. 7, 15, 16, and 17 was added at a concentration of 10 μg/ml. Following 48 h, cell motility was measured using a Diff-Quik kit.

Row | Molecule | transcriptional activity of GLI (GLI1 Reporter activity) [1] | expression level of GLI1 protein [2] | expression level of SMO protein [3] | cell motility [4] | cell motility compared to treatment with vismodegib or erismodegib (positive control) [4]
1 | B1 | significantly inhibited the transcriptional activity of GLI; also recorded: effectively inhibit the SHH-induced GLI transcriptional activity | reduce the expression levels | reduce the expression levels | reduction in cell motility | –
2 | B2 | significantly inhibited the transcriptional activity of GLI; also recorded: effectively inhibit the SHH-induced GLI transcriptional activity | reduce the expression levels | reduce the expression levels | reduction in cell motility; also recorded: highest activities to reduce cell mobility | significantly inhibited cell motility
3 | B3 | significantly inhibited the transcriptional activity of GLI; also recorded: effectively inhibit the SHH-induced GLI transcriptional activity | reduce the expression levels | reduce the expression levels | reduction in cell motility | –
4 | B4 | significantly inhibited the transcriptional activity of GLI; also recorded: effectively inhibit the SHH-induced GLI transcriptional activity | reduce the expression levels | reduce the expression levels | reduction in cell motility; also recorded: highest activities to reduce cell mobility | significantly inhibited cell motility

From US12091453B2, “Epitope specific to SMO protein, antibody recognizing same, and composition comprising same” (HEDGEHOG, INC., priority 2018, dated 2024)
